Test results published in patent US10677783B2, “Method for evaluating effect of cytokine on metabolic activity of cytochrome P450, and drug screening method” (Corning Incorporated, priority 2012, dated 2020).

Experiments:
Format in all cases: cell-based, human
CYP3A4 [1] = assay: Amount of CYP3A4 protein by western blotting in spheroid-shaped FLC-4 cells (example, MICRO-SPACE)
From the text: (§1) A plurality of culture chambers 10a are formed on the bottom culture surface of each well 21a. Each culture chamber 10a includes culture rooms 11a each having the equivalent diameter D of 200 μm and the height H of 100 μm. The width W of each wall 12a is 10 μm.
(§2) As cells to be cultured, FLC-4 cells which are established hepatocyte cell lines […] were used.
(§3) Epidermal Growth Factor (EFG) was used as the cytokine.
(§4) DMEM/F12 (DMEM/E12 FBS(−)) containing no serum was used as a solvent for each test solution.
(§5) To study the cytokine concentrations of the second and third test solutions, test solutions respectively having EGF concentrations of 0.1 ng/mL, 1 ng/mL, and 10 ng/mL were prepared. Note that the cells were cultured in each test solution in advance to obtain a cell survival rate, and it was confirmed that the cell survival rate at these concentrations was 80% or more.
The total amount of old culture medium was removed from each well by using a pipette (culture medium removing process). […]
(§6) The cells corresponding to three to six wells were sonicated by a Lysis buffer containing 0.1% protease inhibitor cocktail and 1 mM PMSF (Phenylmethyl sulfonyl fluoride). […] ImmunoStar LD (Wako Pure Chemical Industries, Ltd.) was used as protein and was detected using LAS-1000 plus (Fujifilm, Tokyo).

CYP3A4 [2] = assay: CYP3A4 mRNA expression by RT-qPCR in spheroid-shaped FLC-4 cells (example, MICRO-SPACE); settings: EGF 10 ng/mL, drug-free vs cytokine-free and drug-free; FIG. 20
From the text: as §1, §2
As a culture medium, a DMEM/F 12 culture medium containing 10% fetal bovine serum (FBS) was used. A cell suspension was adjusted at a cell seeding density of 16×10^5 cells/mL.
The cells were cultured in a CO2 incubator for 10 to 11 days. The culture medium was replaced once every three days.
(§7) The total amount of old culture medium was removed from each well by using a pipette (culture medium removing process).
A test solution or a control solution was added to each well (test solution addition process).
The cells were incubated in a CO2 incubator for eight hours, 24 hours, or 48 hours at 37° C. (contact process). […]
The analysis was made using a total amount of 20 μL of reaction liquid containing 9.6 μL of EagleTaq Master Mix with ROX (Roche, Branchburg, N.J., USA), 0.96 μL of 20× Assays-on-Demand™ Gene Expression Assay Mix (Applied Biosystems), 7.1 μL of sterilized MiliQ water, and 1.8 μL of cDNA diluted by a factor of 5, and the reaction liquid was measured by Real-time PCR.

CYP3A4 [3] = assay: Amount of CYP3A4 protein by western blotting in FLC-4 cells on flat 24-well plate (comparative example, CONFLUENT)
Method: As the culture chamber, a commercially-available 24-well plate having a flat culture surface was used. The cell culture grade was used as the grade for the culture plate.
Except for the above-mentioned conditions, the comparative example was carried out under the same conditions as those for the example.
as §3, §4, §5, §7
Each test solution for studying the cytokine concentration was added to each well (test solution addition process). […]
as §6

FLC-4 cells = assay: Cell survival rate of cells cultured in cytokine test solutions; settings: EGF concentrations of 0.1, 1 and 10 ng/mL
Method: as §5

[4] = EGF 0, 0.1, 1, 10 ng/mL, western blotting

B1: Epidermal Growth Factor (protein, UniProt P01133 23-1207, looked up)
Pro-epidermal growth factor: PQHWSCPEGTLAGNGNSTCVGPAPFLIFSHGNSIFRIDTEGTNYEQLVVDAGVSVIMDFHYNEKRIYWVDLERQLLQRVFLNGSRQERVCNIEKNVSGMAINWINEEVIWSNQQEGIITVTDMKGNNSHILLSALKYPANVAVDPVERFIFWSSEVAGSLYRADLDGVGVKALLETSEKITAVSLDVLDKRLFWIQYNREGSNSLICSCDYDGGSVHISKHPTQHNLFAMSLFGDRIFYSTWKMKTIWIANKHTGKDMVRINLHSSFVPLGELKVVHPLAQPKAEDDTWEPEQKLCKLRKGNCSSTVCGQDLQSHLCMCAEGYALSRDRKYCEDVNECAFWNHGCTLGCKNTPGSYYCTCPVGFVLLPDGKRCHQLVSCPRNVSECSHDCVLTSEGPLCFCPEGSVLERDGKTCSGCSSPDNGGCSQLCVPLSPVSWECDCFPGYDLQLDEKSCAASGPQPFLLFANSQDIRHMHFDGTDYGTLLSQQMGMVYALDHDPVENKIYFAHTALKWIERANMDGSQRERLIEEGVDVPEGLAVDWIGRRFYWTDRGKSLIGRSDLNGKRSKIITKENISQPRGIAVHPMAKRLFWTDTGINPRIESSSLQGLGRLVIASSDLIWPSGITIDFLTDKLYWCDAKQSVIEMANLDGSKRRRLTQNDVGHPFAVAVFEDYVWFSDWAMPSVMRVNKRTGKDRVRLQGSMLKPSSLVVVHPLAKPGADPCLYQNGGCEHICKKRLGTAWCSCREGFMKASDGKTCLALDGHQLLAGGEVDLKNQVTPLDILSKTRVSEDNITESQHMLVAEIMVSDQDDCAPVGCSMYARCISEGEDATCQCLKGFAGDGKLCSDIDECEMGVPVCPPASSKCINTEGGYVCRCSEGYQGDGIHCLDIDECQLGEHSCGENASCTNTEGGYTCMCAGRLSEPGLICPDSTPPPHLREDDHHYSVRNSDSECPLSHDGYCLHDGVCMYIEALDKYACNCVVGYIGERCQYRDLKWWELRHAGHGQQQKVIVVAVCVVVLVMLLLLSLWGAHYYRTQKLLSKNPKNPYEESSRDVRSRRPADTEDGMSSCPQPWFVVIKEHQDLKNGGQPVAGEDGQAADGSMQPTSWRQEPQLCGMGTEQGCWIPVSSDKGSCPQVMERSFHMPSYGTQTLEGGVEKPHSLLSANPLWQQRALDPPHQMELTQ
modifications: Pro-epidermal growth factor
notes: Epidermal Growth Factor used as the cytokine
function of CYP3A4 (amount of CYP3A4 protein, bands), concentration dependency (CYP3A4 [1]; [4]): decreases depending on the concentration
amount of CYP3A4 protein, second test solution versus first test solution (CYP3A4 [1]; EGF 10 ng/mL (M10) vs 0 ng/mL (M0), FIG. 19): M0 is greater than M10
value of the metabolic function of CYP3A4 (mRNA expression level), second test solution versus first test solution (CYP3A4 [2]): lower
function of CYP3A4 (amount of CYP3A4 protein, bands), concentration dependency (CYP3A4 [3]; [4]): the concentration dependency was not confirmed
amount of CYP3A4 protein, second test solution versus first test solution (CYP3A4 [3]; EGF 10 ng/mL (C10) vs 0 ng/mL (C0), FIG. 19): C0 and C10 are nearly equal
cell survival rate (FLC-4 cells): ≥ 80%
